The target of experiment [1] is human CD47 (human) (UniProt Q08722). Put plainly: cell-based or functional assay.
Experiment [2] concerns human B cell lymphoma cell line (Toledo). Description: Macrophage phagocytosis assay with VPD450-labeled Toledo cells (flow cytometry). In kind it is cell-based. To be noted: two hours co-culture, FIG. 1. The text has this:
Heparinized whole blood was obtained from normal healthy human donors (Biological Specialty Corporation) and informed consent was obtained from all donors. Peripheral blood mononuclear cells (PBMCs) were isolated over Ficoll-Paque Plus density gradient (GE Healthcare) and CD14+ monocytes were isolated from PBMCs by positive selection using CD14 antibody-coated MicroBead separation (Miltenyi Biotec). Monocytes were differentiated into macrophages by culturing for seven days in X-Vivo-15 media (Lonza) supplemented with M-CSF (PeproTech), at which point paclitaxel was added to the macrophage culture for an additional six days. On the day of the phagocytosis assay, macrophages were co-cultured with violet proliferation dye 450 (VPD450)-labeled human B cell lymphoma cell line (Toledo) in the presence of 1 μM human SIRPαFc (IgV domain of human SIRPα variant 2 fused with IgG1 Fc), 1 μM control Fc [human IgG1 Fc region (hinge-CH2-CH3)] or nothing (no treatment, NT) for two hours. Phagocytosis was assessed as % VPD450+ cells of live, single CD14+CD11b+ macrophages by flow cytometry. Results are shown in FIG. 1 and are duplicates from a single experiment.

Two substances from US20250235504A1, “ENHANCEMENT OF CD47 BLOCKADE WITH TAXANES FOR CD47+ CANCER THERAPY” (Pfizer Inc., priority 2021, published 2025) can be followed below.

Chain of UniProt Q08722 (Q08722 19-323): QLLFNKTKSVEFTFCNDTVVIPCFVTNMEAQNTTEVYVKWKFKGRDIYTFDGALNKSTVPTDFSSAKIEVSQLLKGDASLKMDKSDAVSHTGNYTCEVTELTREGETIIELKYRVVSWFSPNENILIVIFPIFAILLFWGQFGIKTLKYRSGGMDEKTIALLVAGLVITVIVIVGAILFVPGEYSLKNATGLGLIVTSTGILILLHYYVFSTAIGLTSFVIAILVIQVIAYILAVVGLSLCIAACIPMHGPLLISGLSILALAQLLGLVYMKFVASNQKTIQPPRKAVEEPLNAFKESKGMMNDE

In experiment [1], “human SIRPαFc (IgV domain of human SIRPα variant 2 fused with IgG1 Fc) (Fc fusion)” registered a % phagocytosis (% VPD450+ cells of live, single CD14+CD11b+ macrophages) of Toledo cells, 1 µM SIRPαFc, macrophages cultured in paclitaxel of 15% and a % phagocytosis (% VPD450+ cells of live, single CD14+CD11b+ macrophages) of Toledo cells, 1 µM SIRPαFc, macrophages not cultured in paclitaxel of 9%.

As for “SIRPαFc: IgV domain of human SIRPα variant 2 fused with IgG1 Fc”, in experiment [2] (1 μM SIRPαFc, "no treatment" macrophages (not cultured in paclitaxel)), the “% phagocytosis (% VPD450+ cells of live, single CD14+CD11b+ macrophages)” value is “around 9%”. Moreover, in experiment [2] (1 μM protein), the “phagocytosis of the VPD450-labeled B cell lymphoma cells (in words)” value is “substantial phagocytosis”.
